{"source": "paper PMC1971552", "about": "“A chelating derivative of alpha-melanocyte stimulating hormone as a potential imaging agent for malignant melanoma” (British Journal of Cancer, 1990)", "system": "DBA/2 mice bearing Cloudman S91 melanomas", "settings": "mouse, in vivo", "source_text": "Br. J. Cancer (1990), 62, 919-922 C) Macmillan Press Ltd., 1990 A chelating derivative of oa-melanocyte stimulating hormone as a potential imaging agent for malignant melanoma D.R. Bard, C.G. Knight & D.P. Page-Thomas Strangeways Research Laboratory, Worts' Causeway, Cambridge CB] 4RN, UK Summary A chelating derivative of a-melanocyte stimulating hormone (MSH) has been synthesised, in which two molecules of the hormone are cross-linked by diethylenetriamine pentaacetic acid (DTPA). […] When DBA/2 mice bearing the same tumour were injected with bisMSH-DTPA labelled with the 'y-emitting isotope indium-1Il (\"'In), the radioactivity became rapidly associated with the melanoma tissue. […] Uptake of radioactivity by the tumours was inhibited by a 200-fold molar excess of MSH, whereas uptake by liver, kidney, spleen, lung, brain, eye and skin was unaffected. We conclude that bisMSH-DTPA may offer an alternative to antibody targeting in the imaging of malignant melanoma. Malignant melanoma is characterised by a tendency to meta- stasise early and to be resistant to most conventional therapies. The initial surgical management of the disease would benefit if it were possible to discover whether metas- tasis had taken place and to which locations. […]", "data": [{"smiles": "CSCC[C@H](NC(=O)[C@H](CO)NC(=O)[C@H](Cc1ccc(O)cc1)NC(=O)[C@H](CO)NC(=O)CN(CCN(CCN(CC(=O)O)CC(=O)N[C@@H](CO)C(=O)N[C@@H](Cc1ccc(O)cc1)C(=O)N[C@@H](CO)C(=O)N[C@@H](CCSC)C(=O)N[C@@H](CCC(=O)O)C(=O)N[C@@H](Cc1c[nH]cn1)C(=O)N[C@@H](Cc1ccccc1)C(=O)N[C@@H](CCCNC(=N)N)C(=O)N[C@@H](Cc1c[nH]c2ccccc12)C(=O)NCC(=O)N[C@@H](CCCCN)C(=O)N1CCC[C@H]1C(=O)N[C@H](C(N)=O)C(C)C)CC(=O)O)CC(=O)O)C(=O)N[C@@H](CCC(=O)O)C(=O)N[C@@H](Cc1c[nH]cn1)C(=O)N[C@@H](Cc1ccccc1)C(=O)N[C@@H](CCCNC(=N)N)C(=O)N[C@@H](Cc1c[nH]c2ccccc12)C(=O)NCC(=O)N[C@@H](CCCCN)C(=O)N1CCC[C@H]1C(=O)N[C@H](C(N)=O)C(C)C", "note": "[bisMSH-DTPA]", "values": [{"measurement": "crossing of the blood-brain barrier", "value": "unable to cross the blood-brain barrier"}, {"measurement": "maximum level in the blood following injection", "setting": "ip", "value": "about 0.8 µg ml-1"}]}]}
